# Assay: soluble on expression in E. coli; label from the status in PepcDB or PDB records
row,Sequence,soluble on expression in E. coli
1,MGSDKIHHHHHHCKDNDDATGDFDPNKPVVISEFSPKEGGLGTRMLLYGENFGSDISKIKVTIGGQDSKVVGAKGKSLYCVVPAKAYDGDIKLSILNDEGEEIANTEANEKFVYQKKMLVTTFLGTMYDGNTKYDLKDGPFDDCGGFGGAVWLSFDPKNHNHLYLVGEQHPTRLIDFEKEYVSTVYSGLSKVRTICWTHEADSMIITNDQNNNDRPNNYILTRESGFKVITELTKGQNCNGAETHPINGELYFNSWNAGQVFRYDFTTQETTPLFTIQDSGWEFHIQFHPSGNYAYIVVVNQHYILRSDYDWKTKRLTTPYIVCGQQGAKDWVDGVGKKARMHAPRQGTFVKNPAYKGSSDEYDFYFCDRENHCIRILTPQGRVTTFAGRGSNGTSGYNDGDLRQEARFNHPEGIVYDEERECFFIGDRENRRIRKIGYEE,not soluble
2,MEKSVNVIGAGLAGSEAAWQLVKRGVKVDLYEMRPVKQTPAHHTDKFAELVCTNSLRANGLTNAVGVIKEEMRLLDSIIIESADKASVPAGGALAVDRHEFSGYITDKVKNHPLVTIHTEEVTSIPEGPTIIATGPLTSPALAEEIKRLTGEEYLYFYDAAAPIIEKDSIDMDKVYLKSRYDKGEAAYLNCPMSEEEFNTFYEALVTAETAALKEFEKEVFFEGCMPIEVMAKRGIKTMLFGPLKPVGLEDPKTGKRPYAVLQLRQDDAAGTLYNMVGFQTHLKWGEQKRVFGLIPGLENAEIVRYGVMHRNTFINSPTVLEPTYQLKTRNDLFFAGQMTGVEGYVESAASGLAAGINAANFVQDKEPIVFPPESAIGSLANYITSASKKSFQPMNVNFGLFPELPTKIRAKQERNEKLAERALDAIKKVAEQLLEHHHHHH,soluble
3,LKFPKVAVVGSRACSKQGAKSVEKVIQGLENELVIVSGLAKGIDTAAHMAALQNGGKTIAVIGTGLDVFYPKANKRLQDYIGNDHLVLSEYGPGEQPLKFHFPARNRIIAGLCRGVIVAEAKMRSGSLITCERAMEEGRDVFAIPGSILDGLSDGCHHLIQEGAKLVTSGQDVLAEFEF,not soluble
4,MSTCPIDPPALRAAFAGPLDPQHAEVLLSRYDQHASRLLDALHALYGQRADYASWLAQWLGEVGDIARQRPQALQTLDSTRHAGWFGQPHMLGYSAYADRFAGTLQGVAERVPYLQELGVRYLHLLPFLRARAGDNDGGFAVSDYGQVEPSLGSNDDLVALTSRLREAGISLCADFVLNHTADDHAWAQAARAGDARYLDYYHHFADRTVPDRYEATLGQVFPHTAPGNFTWVDDTAQWMWTTFYPYQWDLNWSNPAVFGDMALAMLRLANLGVEAFRLDSTAYLWKRIGTDCMNQSEAHTLLVALRAVTDIVAPAVVMKAQAIVPMTQLPPYFGSGVDEGHECHLAYHSTLMAAGWSALALQRGDILHNVIAHSPPLPRHCAWLSYVRCHDDIGWNVLQHEACGNAAQPPFSLRDVARFYANAVPGSYARGESFQSSGDGVHGTNGMAAALAGIQAAQEAGDAAALAVAVDRLVLLYAIALAMPGVPLIYMGDELAMVNDPGYRDDPHRQHEGRWLHRPAMDWQLAAQRHDAKSLSGTVYRRLRGLIRQRAALGALAADQALASIALNDPRVFALTRGDSFIALHNFSDQLLDVELAAIGVDGWTLLAIDDAIGGAAARGDGSIVLPPYGVRWLQRGTEHAPE,soluble
5,MKIAIASSGTDLGSEVSRFFGRAPYFMIVEMKKGNIESSEVIENPSASASGGAGIRTAQIIANNGVKAVIASSPGPNAFEVLNELGIKIYRATGTSVEENLKLFTEGNLEEIRSPGSGRGRRRR,soluble
6,METADTYTIVLTERNMGYAGQFYMVSKEGIGEAPISVGSGYGNPLMFSIKAVGSVTKGIMNDPYGEIGIRGPYGNVWPWKSYEHVVAIAGGIGIPPIKALIEDMQGHTSLDKLTVLYGARSPSDIVYRSEIETWKEEMDFRITVDKGDENWRGHVGVVTTLVPEIKEYNHGAAFVIGPPVMMKFSVKSLLDAGFAEDNIYLSLERRMECGIGVCGHCNIGRWYACEDGPIFKYSDTKEEPELFL,not soluble
7,MGEAETPSFEMTWSSTTSSGYCSQEDSDSELEQYFTARTSLVRRPRRDQDEAVERETPDLSQAETEQKIKDYNGQINSNLFMSLNKDGSYTGFIKVQLKLVRPVSVPSSKKPPSLQDARRGTGRSTAVKRRTSFYLPKDAIKHLHVLSRTRAREVIEALLRKFMVVDDPRKFALFERTERHGQVYLRKLSDDEQPLKLRLLAGPSEKALSFVLKENDSGEVNWDAFSMPELHNFLRILQREEEEHLRQILQKYSRCRQKIQEALHACPLG,soluble
8,MLAKQRFVLDTTAFTDNQLRELLGDGDLNLSVDRMLDLIARSRIKLNISCHMPPITYKEFTDYMTRYDCPEETLIKAETWIVKKTPNRYDTQIPSQIFYEYVHDIRERMNKGLRISETLLWEAGIQSIIMASRDVKKTEIESEVLGKAIKDLRKKYRSALRKGTLDSAPDLDVLLLAKELGAGVVAADDGIRVWAERLGLRFLNATSFPKMLKEYLKYYE,not soluble
9,MGTVLFEDKASETKGSDIYHRIIPDAESYIKEQARTVLATLYNSPEDSITPVNKIHYTLEDIEGISAKGGGNGDVTIFYSTRHIEKSFAENDTAKLFFETRGVLLHELTHAYQLEPQGIGSYGTNRVFWAFIEGMADAVRVANGGFDGPNARPKGGNYMDGYRTAGYFFVWLRDNKDPEFLRKFNRSTLEVIPWSFDGAIKHILGTEYSIDELWHEYQVAVGDIQVLEHHHHHH,not soluble
10,MGSDKIHHHHHHMNKINRVAIVGGTHGNEFTGAFLVKKFQQFPEVIQKPSFETLTILGNPKAFEAGKRYIEKDLNRCFLTESLQNTNLSSYEDIRAKQIAGVLGAENKPNVDVVIDLHSTTANMGLSIILGNQDPFLLKLCAYLSDINPLVKVCYTIPEKGSNFLRSLNKLGFVIEVGAVAQGVLNAELFQKTEQLIYTILDYLEQYNRGNIPKINNLLALYKFTGTVDYPRNENGDIQGMIHPDIQFRDYEPLNPGDPLFLTLDGKAIAYEGTSTVYPIFINEAAYYEKGIAMLFTEKQLINPSS,not soluble
11,MKAIIVKPPNAGVQVKDVDEKKLDSYGKIKIRTIYNGICGADREIVNGKLTLSTLPKGKDFLVLGHEAIGVVEESYHGFSQGDLVMPVNRRGCGICRNCLVGRPDFCETGEFGEAGIHKMDGFMREWWYDDPKYLVKIPKSIEDIGILAQPLADIEKSIEEILEVQKRVPVWTCDDGTLNCRKVLVVGTGPIGVLFTLLFRTYGLEVWMANRREPTEVEQTVIEETKTNYYNSSNGYDKLKDSVGKFDVIIDATGADVNILGNVIPLLGRNGVLGLFGFSTSGSVPLDYKTLQEIVHTNKTIIGLVNGQKPHFQQAVVHLASWKTLYPKAAKMLITKTVSINDEKELLKVLREKEHGEIKIRILWE,soluble
12,MSVDYPRDLIGYGSNPPHPHWPGKARIALSFVLNYEEGGERNILHGDKESEAFLSEMVSAQPLQGERNMSMESLYEYGSRAGVWRILKLFKAFDIPLTIFAVAMAAQRHPDVIRAMVAAGHEICSHGYRWIDYQYMDEAQEREHMLEAIRILTELTGERPLGWYTGRTGPNTRRLVMEEGGFLYDCDTYDDDLPYWEPNNPTGKPHLVIPYTLDTNDMRFTQVQGFNKGDDFFEYLKDAFDVLYAEGAEAPKMLSIGLHCRLIGRPARLAALQRFIEYAKSHEQVWFTRRVDIARHWHATHPYTGAAK,soluble
13,MSLSKNNETLEALSKEYRDTIPADLRKTNTFDWYLQQLYDEPKIARNAHQRVADMFDYYGKSYDEEAGVVEYELASEDPLHDGENTFYGRVIHEAMHEFVNKVKSGARGLGPEKRIKLLLGPVGSGKSDFDRQVRRYFEDYTSRDEGRMYTFRWTNLCDVIHDQDPADDVVRSPMNQDPLVLLPQAQRDKVIEDINAELDAPYTIRNEQSLDPASEFYMDRLLAEYDDDLQAVLENHVEIVRFVADENQRRGIETFEPKDKKNQDETELTGDVNYSKIAIYGESDPRAFDYSGAFCNANRGIFSGEELLKLQREFLYDFLHASQEQTIKPKNNPRIDIDQVIVGRTNMPEYRDKKGDEKMEAFNDRTKRIDFPYVLQYEAEANIYQKMLRNADLPDIQVEPHTLEMAGLFGVLTRIEEPDNESIDLVQKAKAYNGEIDEADDVDVKKLREEAEKMADIGEGMDGVSPRFIGDEIAEAIMDSMHRSRDFLSPLTTFNHLEGNLENHGSIDEESFSKYYRFLELVREEYKERAIEDVRHALAYDMDEIQRQGEKYMDHVMAYIDDATVEDELTGREQEPDEQFLRSVEEKLNLPEDRKDDFRQEVSNWVSRRAREGDTFNPQDNDRLRRALERKLWEDKKHNINFSALVSSSEMDDEERNQWVDALIEQGYSEEGAKEVLEFAGAEVAKSEMEEEGHHHHHH,soluble
14,MILDRERTTGSLFERMEASSARNRQGGSIHSLRQSIRQNLRNILNTRSGSCRGAPELGIDEPEGAENFRESMSRAIEQCIERYEPRISHAEVQAVVSSASSPLDMTFHITAWVTFNETHEVLEFDMAPNGSQHYRVD,soluble
15,MGSDKIHHHHHHMKSPEEVTKWVRQRYQRQRWAWLDGGGAWPLQVSLDLPTQKVALADPSAVRTWSSSWADWLAVHPADASRPLPELLTATVAWRNMGEQTLPGALAFSSPECVADYCGDGKVWRRIVSRRATMLARWPALHASGFGSNYTALGEFKDEDFERLLAVLEWLVANPKSGIYLRQLPVPNIDTKWIDLQRRGVVADLFSRIIKPQAALQAVQSFVEGEGAEIDATGQAYSIEKESSNFYDTCGLLRPPVKLRILILCPKLRTQVGGLRDIEATIEDWAQLQLKPRQLLVVENKDTCLAMPDVDGVVAVIKLGNAVALVTRIAWLVRVPVLYWGDIDTYGYSILVQARKKLHDVRSVLMDRSTVETHLDRLVEEGQQTKSIDRSLLTAAELDVYDALLAHDWGTSRRLEQERLEWPSALRTVLSALHQRESKSA,not soluble
16,NDDKEAKKEAQEKEKNTPNGLVYTNLDFDSFKATIKNLKDKKVTFKEVNPDIIKDEVFDFVIVNRVLKKIKDLKHYDPMIEKIFDEKGKEMGLNVEIQINPEVKDFFTFKSISTTNKQRCFLSLRGETREILCDNKLYNMLLAVFNSYDPNDLLKHISTVESLKKIFYTITCEAVY,soluble
17,MAHHHHHHMWEETYVRACANLGVQPRNEVLAAVGGTAQLCGNTFANFENRLTDEELAALCETCRQISLVAVVRLPYNNITCRGATALAKAMKEGFSTLQYLDLSYNSINEEGANAIAAAATNYEMLSTLLLNGNPIGGGSGPCLKTLLESENTQLVTLDLEQTDQGLKSLVHIARGLVHNTTLTTLNLGRPLMTNPMDVSYVVEHLSLALKENRTLRFLGLSHFNMADCDLALLLSTLRDSAVTTLSLKGNKLSQASGEPLAQLLAHRPDFLSLDVTANRLRDVGALAIAAVIANHPGLRELQIGFNTIGGVGISALAQSLAANASITTLKLWGNDLTDESVRDLYAIRGRFESMEVTDFSFYVVDGCPMVARE,not soluble
18,MQLDTIHKITGTLILKSGLHIGAGDSEMRIGGTDSPVVKDPLTDQPYIPGSSLKGKIRSLLEWRHGLVVATGGAPYSFKHLAQDENNSAGRDVIKLFGGAPDKAEDQLVKNIGPTRLAFWDCPLNGDWKKEAADSRHLLTTEVKSENSINRIAGTAEHPRFIERVIAGARFDFTLTLKVLEGDDLLNTVLLGLRLLELDSLGGSGSRGYGKIKFAELKLDGTDLMEQFHAITPFNQTA,not soluble

# — the DeepSol protein solubility set
